This assay deals with Mercuric ion reductase (MerA) from Metallosphaera sedula (Metallosphaera sedula). Briefly: crystal structure; hanging drop; 0.085M TRIS (pH 8.5), 15% v/v glycerol, 14% w/v PEG400, 0.19M LiSO4, 20 mg/mL protein; data collected at 100 K; bound FAD; space group P22(1)2(1), two monomers per asymmetric unit.

As for “Mercuric ion reductase (MerA) from Metallosphaera sedula (enzyme)”, the stoichiometry N stood at 2.

In general, stoichiometry N refers to a count of units in the complex or per binding partner.

(Values after article PMC4500099.)
